As a reminder, the EC50 (read off the curve) is the concentration that produces a half-maximal response.

The test has as its target recombinantly expressed RBD ([change] domain) of bat sarbecovirus WIV16 (bat SARS-like coronavirus WIV16).

Turning to “47D11 fully human IgG1 monoclonal antibody”, the EC50 (read off the curve) worked out at 0.09 µg/mL.

Values taken from US20210340225A1.
